One block for each molecule: values may come before it.
Columns and labels:
[1] = target: OX40 (Kd检测ELISA法的抗原) (human) (UniProt P43489); experiment: ELISA-based Kd method (ELASA法)
[2] = target: 人OX40 (膜表面过表达人OX40的293T细胞系) (human) (UniProt P43489); experiment: flow cytometry on 293T cells overexpressing human OX40
[3] = target: 人OX40 (膜表面过表达人OX40的293T细胞系) (human) (UniProt P43489); experiment: flow cytometry on 293T cells overexpressing human OX40, PE goat anti-mouse secondary

Kd [1]: 9.8 nM
EC50 [2]: 2.5 nM
Molecule: CD40 Monoclonal Antibody (HB14), PE, Catalog#CD4004, Invitrogen

Kd [1]: 0.0273 nM
EC50 [3]: 0.0125 nM
B1: 抗人OX40单克隆抗体 (杂交瘤OX401M) (antibody, part only; not given: constant regions, V domains shown, part only)
VH: QVQLAQPGAELVRPGASVKQYCKASGYSGSSYTIHWVKQTPSRGLEWIGAIYPGNGDTSWNQKFKGKATITADKSSSTAYMRLSSLTSEDSAISYCARSTYYYGAYYFDYWGQGSTL

From patent CN110172090A
